Measured values published in patent US6878804B1, “Synthesis of template-fixed β-hairpin loop mimetics” (University of Zurich, priority 1999, dated 2005).
Non-standard residues stand in square brackets, D forms with d.

Target: T1, platelet-derived growth factor β-receptor (PDGFR-β)
T1 chain: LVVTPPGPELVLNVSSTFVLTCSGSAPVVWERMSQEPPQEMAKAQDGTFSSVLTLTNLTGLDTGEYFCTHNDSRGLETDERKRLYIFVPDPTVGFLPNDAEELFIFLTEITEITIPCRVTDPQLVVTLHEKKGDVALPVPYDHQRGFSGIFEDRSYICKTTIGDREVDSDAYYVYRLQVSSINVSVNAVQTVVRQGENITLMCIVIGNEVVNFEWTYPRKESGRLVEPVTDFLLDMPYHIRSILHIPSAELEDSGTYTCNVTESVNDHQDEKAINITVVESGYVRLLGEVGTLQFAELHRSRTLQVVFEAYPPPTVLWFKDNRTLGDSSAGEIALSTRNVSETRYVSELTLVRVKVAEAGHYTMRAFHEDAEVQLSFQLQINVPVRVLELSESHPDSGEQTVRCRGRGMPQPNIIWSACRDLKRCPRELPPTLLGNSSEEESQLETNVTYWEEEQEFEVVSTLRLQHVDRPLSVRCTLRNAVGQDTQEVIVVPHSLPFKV
Test: solid-phase competition, displacement of 125I-PDGF-BB from plate-immobilised PDGFR-β

B1: target cyclic peptide 24 (peptide)
peptide: cyclo(PAKVRKKKA[dP])
SMILES: CC(C)[C@@H]1NC(=O)[C@H](CCCCN)NC(=O)[C@H](C)NC(=O)[C@@H]2CCCN2C(=O)[C@H]2CCCN2C(=O)[C@H](C)NC(=O)[C@H](CCCCN)NC(=O)[C@H](CCCCN)NC(=O)[C@H](CCCCN)NC(=O)[C@H](CCCNC(=N)N)NC1=O
notes: also called ^LP-A-K-V-R / ^DP-A-K-K-K
B1 showed an IC50 of 2500 µM.

B2: target cyclic peptide 1 (peptide)
peptide: cyclo(PEIVRKKPI[dP])
SMILES: CC[C@H](C)[C@@H]1NC(=O)[C@H](CCC(=O)O)NC(=O)[C@@H]2CCCN2C(=O)[C@H]2CCCN2C(=O)[C@H]([C@@H](C)CC)NC(=O)[C@@H]2CCCN2C(=O)[C@H](CCCCN)NC(=O)[C@H](CCCCN)NC(=O)[C@H](CCCNC(=N)N)NC(=O)[C@H](C(C)C)NC1=O
notes: mimic of PDGF loop III on a diproline template; also called compound 1
B2 was tested, and the IC50 was 2200 µM.

B3: target cyclic peptide 13 (peptide)
peptide: cyclo(PWIVRKKPW[dP])
SMILES: CC[C@H](C)[C@@H]1NC(=O)[C@H](Cc2c[nH]c3ccccc23)NC(=O)[C@@H]2CCCN2C(=O)[C@H]2CCCN2C(=O)[C@H](Cc2c[nH]c3ccccc23)NC(=O)[C@@H]2CCCN2C(=O)[C@H](CCCCN)NC(=O)[C@H](CCCCN)NC(=O)[C@H](CCCNC(=N)N)NC(=O)[C@H](C(C)C)NC1=O
notes: also called ^LP-W-I-V-R / ^DP-W-P-K-K
Binder B3 has an IC50 of 260 µM.

B4: target cyclic peptide 10 (peptide)
peptide: cyclo(PYAVRKKAY[dP])
SMILES: CC(C)[C@@H]1NC(=O)[C@H](C)NC(=O)[C@H](Cc2ccc(O)cc2)NC(=O)[C@@H]2CCCN2C(=O)[C@H]2CCCN2C(=O)[C@H](Cc2ccc(O)cc2)NC(=O)[C@H](C)NC(=O)[C@H](CCCCN)NC(=O)[C@H](CCCCN)NC(=O)[C@H](CCCNC(=N)N)NC1=O
notes: also called ^LP-Y-A-V-R / ^DP-Y-A-K-K
Work on B4 yielded an IC50 of 2000 µM.

B5: target cyclic peptide 18 (peptide)
peptide: cyclo(PWKVRKKKW[dP])
SMILES: CC(C)[C@@H]1NC(=O)[C@H](CCCCN)NC(=O)[C@H](Cc2c[nH]c3ccccc23)NC(=O)[C@@H]2CCCN2C(=O)[C@H]2CCCN2C(=O)[C@H](Cc2c[nH]c3ccccc23)NC(=O)[C@H](CCCCN)NC(=O)[C@H](CCCCN)NC(=O)[C@H](CCCCN)NC(=O)[C@H](CCCNC(=N)N)NC1=O
notes: also called ^LP-W-K-V-R / ^DP-W-K-K-K
In the case of B5, the IC50 is reported as 500 µM.

B6: target cyclic peptide 3 (peptide)
peptide: cyclo(PEWVRKKWI[dP])
SMILES: CC[C@H](C)[C@@H]1NC(=O)[C@H](Cc2c[nH]c3ccccc23)NC(=O)[C@H](CCCCN)NC(=O)[C@H](CCCCN)NC(=O)[C@H](CCCNC(=N)N)NC(=O)[C@H](C(C)C)NC(=O)[C@H](Cc2c[nH]c3ccccc23)NC(=O)[C@H](CCC(=O)O)NC(=O)[C@@H]2CCCN2C(=O)[C@H]2CCCN2C1=O
notes: also called compound 3
In the case of B6, the IC50 is reported as 1500 µM.

B7: target cyclic peptide 19 (peptide)
peptide: cyclo(PAIVRKKPA[dP])
SMILES: CC[C@H](C)[C@@H]1NC(=O)[C@H](C)NC(=O)[C@@H]2CCCN2C(=O)[C@H]2CCCN2C(=O)[C@H](C)NC(=O)[C@@H]2CCCN2C(=O)[C@H](CCCCN)NC(=O)[C@H](CCCCN)NC(=O)[C@H](CCCNC(=N)N)NC(=O)[C@H](C(C)C)NC1=O
notes: also called ^LP-A-I-V-R / ^DP-A-P-K-K
Work on B7 yielded an IC50 of under 2500 µM.

B8: target cyclic peptide 21 (peptide)
peptide: cyclo(PAWVRKKWA[dP])
SMILES: CC(C)[C@@H]1NC(=O)[C@H](Cc2c[nH]c3ccccc23)NC(=O)[C@H](C)NC(=O)[C@@H]2CCCN2C(=O)[C@H]2CCCN2C(=O)[C@H](C)NC(=O)[C@H](Cc2c[nH]c3ccccc23)NC(=O)[C@H](CCCCN)NC(=O)[C@H](CCCCN)NC(=O)[C@H](CCCNC(=N)N)NC1=O
notes: also called ^LP-A-W-V-R / ^DP-A-W-K-K
B8 gave an IC50 of 2000 µM.

B9: target cyclic peptide 7 (peptide)
peptide: cyclo(PYIVRKKPY[dP])
SMILES: CC[C@H](C)[C@@H]1NC(=O)[C@H](Cc2ccc(O)cc2)NC(=O)[C@@H]2CCCN2C(=O)[C@H]2CCCN2C(=O)[C@H](Cc2ccc(O)cc2)NC(=O)[C@@H]2CCCN2C(=O)[C@H](CCCCN)NC(=O)[C@H](CCCCN)NC(=O)[C@H](CCCNC(=N)N)NC(=O)[C@H](C(C)C)NC1=O
notes: also called ^LP-Y-I-V-R / ^DP-Y-P-K-K
With B9 the IC50 was 1500 µM.

B10: target cyclic peptide 20 (peptide)
peptide: cyclo(PAYVRKKYA[dP])
SMILES: CC(C)[C@@H]1NC(=O)[C@H](Cc2ccc(O)cc2)NC(=O)[C@H](C)NC(=O)[C@@H]2CCCN2C(=O)[C@H]2CCCN2C(=O)[C@H](C)NC(=O)[C@H](Cc2ccc(O)cc2)NC(=O)[C@H](CCCCN)NC(=O)[C@H](CCCCN)NC(=O)[C@H](CCCNC(=N)N)NC1=O
notes: also called ^LP-A-Y-V-R / ^DP-A-Y-K-K
B10 was tested, and the IC50 was 2000 µM.

B11: target cyclic peptide 17 (peptide)
peptide: cyclo(PWSVRKKSW[dP])
SMILES: CC(C)[C@@H]1NC(=O)[C@H](CO)NC(=O)[C@H](Cc2c[nH]c3ccccc23)NC(=O)[C@@H]2CCCN2C(=O)[C@H]2CCCN2C(=O)[C@H](Cc2c[nH]c3ccccc23)NC(=O)[C@H](CO)NC(=O)[C@H](CCCCN)NC(=O)[C@H](CCCCN)NC(=O)[C@H](CCCNC(=N)N)NC1=O
notes: also called ^LP-W-S-V-R / ^DP-W-S-K-K
With B11 the IC50 was 800 µM.

B12: target cyclic peptide 2 (peptide)
peptide: cyclo(PEYVRKKYI[dP])
SMILES: CC[C@H](C)[C@@H]1NC(=O)[C@H](Cc2ccc(O)cc2)NC(=O)[C@H](CCCCN)NC(=O)[C@H](CCCCN)NC(=O)[C@H](CCCNC(=N)N)NC(=O)[C@H](C(C)C)NC(=O)[C@H](Cc2ccc(O)cc2)NC(=O)[C@H](CCC(=O)O)NC(=O)[C@@H]2CCCN2C(=O)[C@H]2CCCN2C1=O
notes: also called compound 2
With B12 the IC50 was 2000 µM.

B13: target cyclic peptide 9 (peptide)
peptide: cyclo(PYWVRKKWY[dP])
notes: also called ^LP-Y-W-V-R / ^DP-Y-W-K-K
B13 gave an IC50 of 500 µM.

B14: target cyclic peptide 11 (peptide)
peptide: cyclo(PYSVRKKSY[dP])
SMILES: CC(C)[C@@H]1NC(=O)[C@H](CO)NC(=O)[C@H](Cc2ccc(O)cc2)NC(=O)[C@@H]2CCCN2C(=O)[C@H]2CCCN2C(=O)[C@H](Cc2ccc(O)cc2)NC(=O)[C@H](CO)NC(=O)[C@H](CCCCN)NC(=O)[C@H](CCCCN)NC(=O)[C@H](CCCNC(=N)N)NC1=O
notes: also called ^LP-Y-S-V-R / ^DP-Y-S-K-K
With B14 the IC50 was 2000 µM.

B15: target cyclic peptide 23 (peptide)
peptide: cyclo(PASVRKKSA[dP])
SMILES: CC(C)[C@@H]1NC(=O)[C@H](CO)NC(=O)[C@H](C)NC(=O)[C@@H]2CCCN2C(=O)[C@H]2CCCN2C(=O)[C@H](C)NC(=O)[C@H](CO)NC(=O)[C@H](CCCCN)NC(=O)[C@H](CCCCN)NC(=O)[C@H](CCCNC(=N)N)NC1=O
notes: also called ^LP-A-S-V-R / ^DP-A-S-K-K
In the case of B15, the IC50 is reported as 2500 µM.

B16: target cyclic peptide 8 (peptide)
peptide: cyclo(PYYVRKKYY[dP])
SMILES: CC(C)[C@@H]1NC(=O)[C@H](Cc2ccc(O)cc2)NC(=O)[C@H](Cc2ccc(O)cc2)NC(=O)[C@@H]2CCCN2C(=O)[C@H]2CCCN2C(=O)[C@H](Cc2ccc(O)cc2)NC(=O)[C@H](Cc2ccc(O)cc2)NC(=O)[C@H](CCCCN)NC(=O)[C@H](CCCCN)NC(=O)[C@H](CCCNC(=N)N)NC1=O
notes: also called ^LP-Y-Y-V-R / ^DP-Y-Y-K-K
With B16 the IC50 was 800 µM.

B17: target cyclic peptide 4 (peptide)
peptide: cyclo(PEAVRKKAI[dP])
SMILES: CC[C@H](C)[C@@H]1NC(=O)[C@H](C)NC(=O)[C@H](CCCCN)NC(=O)[C@H](CCCCN)NC(=O)[C@H](CCCNC(=N)N)NC(=O)[C@H](C(C)C)NC(=O)[C@H](C)NC(=O)[C@H](CCC(=O)O)NC(=O)[C@@H]2CCCN2C(=O)[C@H]2CCCN2C1=O
notes: also called compound 4
With B17 the IC50 was under 2500 µM.

B18: target cyclic peptide 22 (peptide)
peptide: cyclo(PAAVRKKAA[dP])
SMILES: CC(C)[C@@H]1NC(=O)[C@H](C)NC(=O)[C@H](C)NC(=O)[C@@H]2CCCN2C(=O)[C@H]2CCCN2C(=O)[C@H](C)NC(=O)[C@H](C)NC(=O)[C@H](CCCCN)NC(=O)[C@H](CCCCN)NC(=O)[C@H](CCCNC(=N)N)NC1=O
notes: also called ^LP-A-A-V-R / ^DP-A-A-K-K
Work on B18 yielded an IC50 of under 2500 µM.

B19: target cyclic peptide 12 (peptide)
peptide: cyclo(PYKVRKKKY[dP])
SMILES: CC(C)[C@@H]1NC(=O)[C@H](CCCCN)NC(=O)[C@H](Cc2ccc(O)cc2)NC(=O)[C@@H]2CCCN2C(=O)[C@H]2CCCN2C(=O)[C@H](Cc2ccc(O)cc2)NC(=O)[C@H](CCCCN)NC(=O)[C@H](CCCCN)NC(=O)[C@H](CCCCN)NC(=O)[C@H](CCCNC(=N)N)NC1=O
notes: also called ^LP-Y-K-V-R / ^DP-Y-K-K-K
With B19 the IC50 was 1500 µM.

B20: target cyclic peptide 16 (peptide)
peptide: cyclo(PWAVRKKAW[dP])
SMILES: CC(C)[C@@H]1NC(=O)[C@H](C)NC(=O)[C@H](Cc2c[nH]c3ccccc23)NC(=O)[C@@H]2CCCN2C(=O)[C@H]2CCCN2C(=O)[C@H](Cc2c[nH]c3ccccc23)NC(=O)[C@H](C)NC(=O)[C@H](CCCCN)NC(=O)[C@H](CCCCN)NC(=O)[C@H](CCCNC(=N)N)NC1=O
notes: also called ^LP-W-A-V-R / ^DP-W-A-K-K
B20 was tested, and the IC50 was 800 µM.

B21: target cyclic peptide 5 (peptide)
peptide: cyclo(PESVRKKSI[dP])
SMILES: CC[C@H](C)[C@@H]1NC(=O)[C@H](CO)NC(=O)[C@H](CCCCN)NC(=O)[C@H](CCCCN)NC(=O)[C@H](CCCNC(=N)N)NC(=O)[C@H](C(C)C)NC(=O)[C@H](CO)NC(=O)[C@H](CCC(=O)O)NC(=O)[C@@H]2CCCN2C(=O)[C@H]2CCCN2C1=O
notes: also called compound 5
B21 showed an IC50 of 2500 µM.

B22: target cyclic peptide 14 (peptide)
peptide: cyclo(PWYVRKKYW[dP])
SMILES: CC(C)[C@@H]1NC(=O)[C@H](Cc2ccc(O)cc2)NC(=O)[C@H](Cc2c[nH]c3ccccc23)NC(=O)[C@@H]2CCCN2C(=O)[C@H]2CCCN2C(=O)[C@H](Cc2c[nH]c3ccccc23)NC(=O)[C@H](Cc2ccc(O)cc2)NC(=O)[C@H](CCCCN)NC(=O)[C@H](CCCCN)NC(=O)[C@H](CCCNC(=N)N)NC1=O
notes: also called ^LP-W-Y-V-R / ^DP-W-Y-K-K
B22 gave an IC50 of 170 µM.
